This assay addresses T1, HER-2 (UniProt P04626 23-652, limits assumed).
T1 construct: also called HER2/neu; erbB-2
Kind of assay: SPR (BIAcore 1000), HER-2 amine-coupled on chip, antibody injected at 6.25-200 nM.

With ch4D5 (antibody), the koff turned out to be 6.3e-06 s⁻¹ and the on-rate constant (kon) was 110000 M⁻¹ s⁻¹.

B1: ch4D5-wild-type Fc (antibody, human IgG1, kappa, V domains shown)
VH: QVQLQQSGPELVKPGASLKLSCTASGFNIKDTYIHWVKQRPEQGLEWIGRIYPTNGYTRYDPKFQDKATITADTSSNTAYLQVSRLTSEDTAVYYCSRWGGDGFYAMDYWGQGASVTVSS
VL: DIVMTQSHKFMSTSVGDRVSITCKASQDVNTAVAWYQQKPGHSPKLLIYSASFRYTGVPDRFTGSRSGTDFTFTISSVQAEDLAVYYCQQHYTTPPTFGGGTKVEIKR
notes: Chimeric IgG with wild-type human IgG1 Fc; also called ch4D5-FcWT (wild-type Fc); Chimeric 4D5 Antibody having a wild-type Fc
For B1, the koff is about 3.2e-07 s⁻¹ and the kon was 170000 M⁻¹ s⁻¹.

(Values after patent US20220041725A1 (MacroGenics, published 2022).)
